# Results from the DeepSol protein solubility set.
# Experiment: soluble on expression in E. coli; label from the status in PepcDB or PDB records
row,Sequence,soluble on expression in E. coli
1,MMWKQAMTDVAEKTLTNIKRFNGRFPHVSEDGEHYELNNNNEWTNGFWSGILWLCYEYTNDPAFRQAAASTVRSFQQRMEQNLELDHHDIGFLYSLSSKAQWIIERDERAKQLTIEAADVLMKRWREKIELFQAWGPEGDLSNGGRIIVDCLMNLPLLFWASEVTGNPDYREAAIIHADKTRRFIVRGDDSTYHTFYFNQETGEALRGGTHQGYEDGSTWSRGQAWAIYGFAIAYRYTGNERYLETAKRTAKYFIENLPADYVAYWDFNAPITPDTKRDSSASAIASCGILELLSHLQETDPDKAFFQQSVQKQMTSLVENYASEKDAQGLIKRGSYSVRIGHAPDDYVIWGDYFYTEALMRLEKLRNGYWYEGKLEHHHHHH,soluble
2,MSLNDKAILVGVDGSHASYKATWWAANYAKHAGLTLQIVCAYSLPSYAAVSFDATYTAMGDDNAAHNDAQEILSKAKAIADEQGVEASTLIVTGDPASVFVELSRNYNLIVIGNRGKGGLAERLLGTTSSSLPAYAYCPIVVVPYTDDEGNLMHLNNTITKVAVGSDESKWGLKALEIAAAFADSWGAELDVISAVPNMKGSEDEGVMASFQEDLDVRIKPLEAAYPSLKINKQIVPGPAAGALTKASYDHDVVVVGSRGRGGFTGLLLGSTSQGLLQHAVGPVYVVPRKYVEAAETRLDTVPSSPADVTPKAIDDIKGVEEVPVDKAKPEVVEAIETKIDPDREGHHHHHH,soluble
3,MGSDKIHHHHHHMRNLGNTNMKIKRVGFGGIPIQRITQDDTNLVINELEKQGINFIDSARGYTISEEAIGIAIEGKRDKFFLATKSMSRDYDSMKRDVEISLNNFKTDFIDLYQFHNVKEEEYDNLFKDKMAYSALLEAKEQGKIKHIGITSHNLNTIEKAIEDGKFDTIQFPYNIVEGQADEVFKKAHEKGIGIIVMKPLAGGALDNATLAIKYILSKDYIDVVIPGMESVEQVRQNVAVLENLVLDEKDNKEIEEIRNSLGKKFCRRCEYCMPCAVGINIPLSFLCEGYYTRYGLKEWAKEKYEVMDVKPTECIDCGLCESRCPYELPIREMLKTVVEKLG,not soluble
4,MPLEASELKPTAGPLEASELKPTAGPLEASELKPTAGPLEASELKPTAGPLEASELKPTAGPLEASELKPTAGPLEASELKPTAGMTDAFIFENKKAAFLTLGCKLNFAETSTIGKALAEQGVRPVREGEKADICVINTCSVTELADKKCRNAIRKLHKEHPGALMIVTGCYAQLKPEEIARIDGVDIVLGADEKLDLVSILSQRPIQGFAEQTILTTPTKDIRKFQPGCSADDRTRHFLKVQDGCDYHCSYCTIPKARGRSRNGSIESLVRQAEAVAAEGGKEIVLTGVNIGDFGRSTGETFLDLLRALDQVEGIERYRIGSIEPNLLSDELIDFCASAHRIAPHFHMPLQSGSDDVLKLMRRRYDTALFRERVEHIRRALPHAFIGIDVIVGTRGEKPEFFEDCYSFLQDKISFSRLHVFSYSERPGTQALQIPYKVDAREKQRRSRRLLDLSDLRLAEFYRSQEGTHRRVLWEDVCHEGLMQGFTENYIRVAAPYAADSVGKVEEIVLGKTDPSGEYVQTADTIFPLEHHHHHH,soluble
5,MSLSSPQFEENSFECPVEIGISNMCGKRDSMQDTSVVITNFLGIGFHLLSLFDGHSGIYSSCFCASQFPNCFANILSKNPQQSIEDALIHSFKEMNQKINEYKFNDGTAANVVLITPQRYFIANVGDSRCILVKKDSIIILNEDHTINNPDEVQRIRKLNGFIDHSKVNGEIVLTRTLGDIQCSSVCSCIPQITCHERGIDDICIVLCCDGVFDVLSNELVGEICRKKSNESASVLSSLIRDIAYNNGCKDNISCIVCKLMSEGHHHHHH,soluble
6,MLPRAEQKQQTRRALLDAAHQLMESGRGFGSLSLREVARTAGIVPTGFYRHFEDMDQLGLALVIEVGQTFRETIRLVRHNEFAMGGLIRASVKIFLERVAANRSQFLFLAREQYGGSLKVRQALGALREGISADLTADLAKMPKWQHLNADALSIIADLVVKSVFAMLPELIDPPPASLAPHLTPQAKITQQLRFIFIGARHWRGLGTHD,not soluble
7,MLTAATEVLAAADGPGSAESAWAWRDAPIATLVQRIQQLQNERAQAFRRLDQAHRQYLLSGQHYDFPSYRSVVHEVTQAFAAASREVLAVEAELAGPRAQPVLARHVRSLQELEQTRLATVALLQVMGTPGVSEQDPEKLHQLKIKVIKTMEAIGEVLQELRFDAESAE,soluble
8,MGSDKIHHHHHHMTRLCRTFQTAPAAIPNDNSAKFLVSGLTSKGFQAPDWLVPDIEDGTAPSMKDEAVDNIIEHIPDHADDFAGDILPRVEWAYDDANARERGIEQVTRLAEAVGEELDGFVFPKVGRLDDVRDAAGVIADAERDAGLPEGTLEMAIILETAPGRSDLREICQYATDSRLSGLVFGPVDYTAELGGRTLDGERPRWDGLLEALSNETSAADIVAIGGPFDQLFHERAGVTYYNAEGYADQVAYEATIGIDGSWSLHPKQTEQANRIHMPTVEEMERDLHKIESFNEAKREGTGAVVVDGQMVDEATYKNFANTVKTVRAIDETHPAQTEAYYDDDLLARARDVELIFG,not soluble
9,MAGIEITVIDYYHSKINKDSKMEIKIGELPKVLNKTYLGKLNATPSMNNPVKDTQGGEKQMESMLAYIKQKGWAGESKPNFVMNRNVIGAIPSSTGVENFIVFKTNDVQVIVKTPKEKGQESEGNQMEPWKSLIYGVNFEHHCTKTANEPLPTNDAVTKAVLKAHVPRTQEGSNNSSYSILYSAQIDGIDDKRQHYEMKVLNGGLTKYHLENSSCWFYWQSVFGNCNTLIVGSRTGKQDQDPKTLTKTRERQREELDDISYVSKFVSFSFKT,soluble
10,GPGSMSLEGKVALITGAGSGFGEGMAKRFAKGGAKVVIVDRDKAGAERVAGEIGDAALAVAADISKEADVDAAVEAALSKFGKVDILVNNAGIGHKPQNAELVEPEEFDRIVGVNVRGVYLMTSKLIPHFKENGAKGQECVILNVASTGAGRPRPNLAWYNATKGWVVSVTKALAIELAPAKIRVVALNPVAGETPLLTTFMGEDSEEIRKKFRDSIPMGRLLKPDDLAEAAAFLCSPQASMITGVALDVDGGRSIGGRSI,soluble
11,MGSDKIHHHHHHMKNIHSIEFYTGSKEELLPDFEKDFPYIASRAELDKYIGGYVPWHWHRTVELFYMESGSIEYDTPGGKILFPAGSGGMINPNVLHMTKAISQREKNIQLLHIFDVSLLAGEQGSRIEQKYIAPVITAPQIEVIPLFPGNAEEERILKLLAASFRLSSDEFGYEIKLREALTEIWLMLFELSCSMREKKGEHNKSNDKIKLMMIYIHEHYREKISILELAAAAYLSERECYRVFHDCLHMTPVEYITTYRLQIACQMLAKGQEPITVISHECGLGSSSYFGKVFREYAYCSPTEYRKKWQNSDM,not soluble
12,GMPIDTPTDASPADGSASDTVFFGIMSGLELGTFVPGQRLVETDLVAHFGVGRNSVREALQRLAAEGIVDLQRHRGAVIRRLSLQETLDVLDVAERMTGLLARAATRGSGNQPQVQALRASVQALVAAEKAQDGETFSNARRHFYRTLLEMGDNRELRRLFPTIHMPIVHAQHRLASLRQMRLDDYRRIATAVLAGEPDAAEAAGAAHVKNVRGAILDRQPA,soluble
13,MNYRELMQKKNVRPYVLMARFGLEKENQRSTREGLLATTEHPTVFGNRSYHPYIQTDFSETQLELITPVANSGTEMLRFLDAIHDVARRSIPEDEMLWPLSMPPQLPTKDEEIKIAKLDQYDAVLYRRYLAKEYGKRKQMVSGIHFNFEYDQALIQQLYDEQSEVTDCKQFKTKVYMKVARNFLRYRWLITYLFGASPVSEDRYFRVYDDQPQEPVRSIRNSTYGYRNHDNVKVSYASLERYLEDIHRMVENGLLSEEKEFYAPVRLRGGKQMSDLPKTGIRYIELRNLDLNPFSRLGIVEDTVDFLHYFMLYLLWTDEKEEADEWVKTGDIFNEQVALGHPHETIKLIAEGDRIFSEMIDMLDALGIRKGKEVVGKYYQQLRNPQDTVSGKMWTIIQENSNSELGNIFGNQYQSMAFERPYQLAGFREMELSTQIFLFDAIQKGLEIEILDEQEQFLKLQHGEHIEYVKNANMTSKDNYVVPLIMENKTVTKKILSAAGFHVPGGEEFSSFIEAQEAHLRYANKAFVVKPKSTNYGLGITIFKEGASLEDFTEALRIAFKEDTAVLIEEFLPGTEYRFFVLDNDVKAIMLRVPANVTGDGKHTVEELVAAKNSDPLRGTNHRAPLELIQLNDLEKLMLKEQGLTIYSVPEKEQIVYLRENSNVSTGGDSIDMTDVIDDSYKQIAIEAVAALGAKICGIDLIIPDKDVKGTRDSLTYGIIEANFNPAMHMHVYPYAGQGRRLTMDVLKLLYPEVVQ,not soluble
14,MSLSSAQQWSYVRQLQREIRRSDVLDLPLEKLPVVVFDLETSGFYPDQGDRILSIGAVKVVGLTIQEEETFYSVVHTDTVPPENILELTGLSVEELEAAPPLTSVLESFYAFIRHSTLVAHHASHEKAFMSHVTWQTMKLPFEHRVIDTSFLTKIVAPQELVTLDDCCAYYSIPVQNRHHAFEDSLMTAKLWIAAIAAAREAGEGHHHHHH,not soluble
15,MRALRLLTRQEYQNTVNDLLGLSENLVHLLPEENRVDGFDNNVATNLVTSIRLEAFLTQAEALAAKAVQQNWNALLPCTQQDLEHHHHHH,not soluble
16,MGSDKIHHHHHHMNMLLSEEQRDALQELMNISMGQAANSLARLIEAKITLSIPKISDVTPEQFVSMLSDQTMWYTRQSFLGSIKGEVISTLSKQGCDAIGKLMDYQPPLTQDRLNELLLELANILAGACLTGFAEQLSLNAKLSMPTMYSATSQHYHYRWASTLMMEVEFKVEVSQFDSKIVICLEEASVQTLLAKLQQLLE,not soluble
17,MGSDKIHHHHHHMTTLDALRVFVEVVRAGSFTAAARRLSISKSLASKRVAALEDELSVNLLNRSTRSLRLTEAGQIYYEHGLRVIEELQSAEAQVQSVTSQPRGQLKVSAQVSFGFMYLAAPTTAFMRRYPDVSVEILLEDQRFEPIDDSVDLAIRMGPLPPSSLVSRPLCKVVYGLYAAPDYLARAGRPLHPRDIADYDTVFYGNYDLGAHWRFSLNGQPLDIEPNSRLVINNLLGVVEAAKSGFGLAYLPTFAARAAVEEGQLIPLLQPYWNEHGSMLVLFRSRKYLPDKTRAYLDFITDWFREHLAL,not soluble
18,ILLLLLSLFLGLSSQAQEDSLQANRYVMRATLYGAGFTNILDTYLSPMEYTGPEIRILRESMRMTKLMNGNVSVQSLFQANLSLTENKAETSNEMAGMVNWNYALHYQFRLTENLKILAGPMLDLNGGFIYNMRNSNNPAQAKAYVNLAASGMVIYRFHIGNYPLIARYQANLPVMGIMFSPEYGQSYYEIFSLKNGGKNVLFTSLHNQPSLRQLVTLDFPIRSVNMRFGYLCDIQQAKVNNLKSHIWSHAFMIGFVKNFYLLKGKNKVAMPSRVSPY,not soluble
19,VKLLTDLFKAGLRTPSTDQIQKISMELSFYGKIESKNVFYWFQNHKARERQKCRKISTVKFDHRQDTDLSKPRRDNVRRHQLPAKG,not soluble
20,MDSLPTSATNGPAGLSAEADAEPHARLTFDLDVDLCVIGAGLAGLSVALEAAQAGLSVAVLESGRIGWGASGHNLGSVTPGYGVPIGDLIARVGLDHASALWALTREGMEIVRARATEEAMPGVALSDGALEVSNVDIGDRLVERLQTLGVDFGSEVEGWPIDKVRDVLRTNRYFHGIHYPTAFQLDGRRYLRGLERLARQAGARIFEETPAVSIDFAGIRKRISTPNARLRASDIVLAGSVHLGAPSPRVAETLLPVWRTAALTAPLGEQLPDAIAFAGSIADTDGVDHYRIVGGDRLLWASGETTFDVAPQRLAGIIRRRIAAVFPQLGQVEIAQTFSAAVGMTVHGMPQVGELRPGLWVASGFGRQGLATTAIAGRLIARGLTHSDERWKLFSPFDLVWAGGTIGRIVGQGVYFATREGALAAGALARYRERAAARTRVRDARAEVKQEERRARVALLRAAEAANVPPPNAPSRRPVPPPSPELEHHHHHH,not soluble
